The record followed here is US20030049732A1 (Human Genome Sciences, published 2003).

B1: Caspase-9 (enzyme, UniProt P55211 1-416, looked up)
chain: MDEADRRLLRRCRLRLVEELQVDQLWDALLSRELFRPHMIEDIQRAGSGSRRDQARQLIIDLETRGSQALPLFISCLEDTGQDMLASFLRTNRQAAKLSKPTLENLTPVVLRPEIRKPEVLRPETPRPVDIGSGGFGDVGALESLRGNADLAYILSMEPCGHCLIINNVNFCRESGLRTRTGSNIDCEKLRRRFSSLHFMVEVKGDLTAKKMVLALLELAQQDHGALDCCVVVILSHGCQASHLQFPGAVYGTDGCPVSVEKIVNIFNGTSCPSLGGKPKLFFIQACGGEQKDHGFEVASTSPEDESPGSNPEPDATPFQEGLRTFDQLDAISSLPTPSDIFVSYSTFPGFVSWRDPKSGSWYVETLDDIFEQWAHSEDLQSLLLRVANAVSVKGIYKQMPGCFNFLRKKLFFKTS
notes: also called procaspase-9; procaspas-9

Test [1] has as its target T1, Nod1 mutant, residues 126-953 (human, UniProt Q9Y239 126-953).
T1 construct: also called mutant lacking the CARD
T1 sequence: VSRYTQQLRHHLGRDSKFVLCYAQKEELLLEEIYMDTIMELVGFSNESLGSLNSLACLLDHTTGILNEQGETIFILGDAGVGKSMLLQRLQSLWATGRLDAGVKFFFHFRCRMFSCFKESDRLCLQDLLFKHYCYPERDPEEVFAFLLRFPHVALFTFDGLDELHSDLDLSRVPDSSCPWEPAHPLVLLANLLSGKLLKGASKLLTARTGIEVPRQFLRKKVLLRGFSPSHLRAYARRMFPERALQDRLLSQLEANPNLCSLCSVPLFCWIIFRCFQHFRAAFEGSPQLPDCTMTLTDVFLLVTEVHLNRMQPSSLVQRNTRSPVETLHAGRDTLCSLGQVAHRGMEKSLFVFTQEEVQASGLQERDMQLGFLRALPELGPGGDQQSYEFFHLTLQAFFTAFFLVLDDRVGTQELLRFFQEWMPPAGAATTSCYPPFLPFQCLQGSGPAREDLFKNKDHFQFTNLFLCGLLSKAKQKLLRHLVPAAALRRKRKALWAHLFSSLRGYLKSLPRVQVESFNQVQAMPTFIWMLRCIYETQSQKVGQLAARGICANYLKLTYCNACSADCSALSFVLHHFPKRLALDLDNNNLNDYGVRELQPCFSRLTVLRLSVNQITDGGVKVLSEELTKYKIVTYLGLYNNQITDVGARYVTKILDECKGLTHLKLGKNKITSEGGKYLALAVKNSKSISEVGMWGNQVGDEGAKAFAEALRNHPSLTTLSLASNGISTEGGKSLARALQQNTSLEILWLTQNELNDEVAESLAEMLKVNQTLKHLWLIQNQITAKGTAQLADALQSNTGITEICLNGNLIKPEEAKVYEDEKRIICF
As to the kind of experiment: co-immunoprecipitation from co-transfected 293T cells, immunoblot. The source says:
(§1) Both Ced-4 and Apaf-1 associate with their target caspases via their corresponding CARDs (Zou et al., Cell, 90:405 (1997); Hu et al., Proc. Natl. Acad. Sci. USA, 95:4386 (1998); ); Chinnaiyan et al., Nature, 388:728 (1997); Hu et al., Proc. Natl. Acad. Sci. USA, 95:4386 (1998); Srinivasula et al., Mol. Cell, 1:946 (1998); Chaudhary et al., J. Biol. Chem., 273:17708 (1998); Yang et al., Science, 281:1355 (1998)).
(A western blot detects proteins with antibodies after separation by electrophoresis.)

A further test concerns the target T2, RICK (UniProt O43353 1-540).
T2 construct: also called serine-threonine kinase with a CARD
As to the kind of experiment: co-transfection of WT or mutant Nod1 and RICK in 293T cells.

The target in the test “Caspase-9” is B1. In words: co-immunoprecipitation from co-transfected 293T cells, immunoblot.
Source text: as §1

In another test the target is T3, Apaf-1 (UniProt O14727-3 1-1194, limits assumed).
T3 sequence (looked up): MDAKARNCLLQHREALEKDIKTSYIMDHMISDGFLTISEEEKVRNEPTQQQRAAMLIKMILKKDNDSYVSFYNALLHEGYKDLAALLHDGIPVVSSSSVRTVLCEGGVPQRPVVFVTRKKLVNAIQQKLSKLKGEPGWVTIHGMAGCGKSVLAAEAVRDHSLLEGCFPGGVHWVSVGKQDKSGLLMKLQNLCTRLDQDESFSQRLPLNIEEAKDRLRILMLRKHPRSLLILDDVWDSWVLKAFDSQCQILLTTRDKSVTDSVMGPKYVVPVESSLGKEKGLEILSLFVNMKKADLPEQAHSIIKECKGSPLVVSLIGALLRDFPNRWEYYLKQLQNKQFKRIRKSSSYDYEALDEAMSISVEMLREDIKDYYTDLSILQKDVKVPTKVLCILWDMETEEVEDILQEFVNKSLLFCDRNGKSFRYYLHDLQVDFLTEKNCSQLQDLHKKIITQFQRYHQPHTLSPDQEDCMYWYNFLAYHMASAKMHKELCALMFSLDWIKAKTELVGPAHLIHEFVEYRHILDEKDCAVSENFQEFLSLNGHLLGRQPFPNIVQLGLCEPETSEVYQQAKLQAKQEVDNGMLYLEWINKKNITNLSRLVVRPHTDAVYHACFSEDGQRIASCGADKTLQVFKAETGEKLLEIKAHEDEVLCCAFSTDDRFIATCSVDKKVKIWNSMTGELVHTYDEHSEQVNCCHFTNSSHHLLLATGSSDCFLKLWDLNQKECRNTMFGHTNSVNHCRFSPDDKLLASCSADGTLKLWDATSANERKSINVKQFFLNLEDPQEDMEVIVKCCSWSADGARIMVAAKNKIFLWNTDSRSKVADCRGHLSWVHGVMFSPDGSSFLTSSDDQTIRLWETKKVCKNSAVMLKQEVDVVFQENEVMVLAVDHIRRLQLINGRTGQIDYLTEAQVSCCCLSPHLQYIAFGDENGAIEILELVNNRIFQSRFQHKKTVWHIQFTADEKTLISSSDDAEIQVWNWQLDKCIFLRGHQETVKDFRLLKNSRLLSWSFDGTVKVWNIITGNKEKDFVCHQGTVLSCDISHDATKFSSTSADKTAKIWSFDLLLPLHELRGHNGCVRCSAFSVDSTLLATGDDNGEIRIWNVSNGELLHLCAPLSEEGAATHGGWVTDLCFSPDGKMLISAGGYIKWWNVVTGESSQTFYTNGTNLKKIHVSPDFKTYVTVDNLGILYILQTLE
As to the kind of experiment: co-immunoprecipitation, tagged proteins transiently expressed in 293T cells. The text has this:
The CARD and its structurally related death effector domain (DED) are peptide motifs that mediate interactions between apoptosis-regulatory proteins (Science 281:1301 (1998); Hofmann et al., Trends Biochem. Sci. 22:155 (1998)).

For another test, the target named is T4, Nod1 V41Q (human, UniProt Q9Y239 1-953).
T4 construct: also called V41 Q point mutant in the CARD
T4 sequence: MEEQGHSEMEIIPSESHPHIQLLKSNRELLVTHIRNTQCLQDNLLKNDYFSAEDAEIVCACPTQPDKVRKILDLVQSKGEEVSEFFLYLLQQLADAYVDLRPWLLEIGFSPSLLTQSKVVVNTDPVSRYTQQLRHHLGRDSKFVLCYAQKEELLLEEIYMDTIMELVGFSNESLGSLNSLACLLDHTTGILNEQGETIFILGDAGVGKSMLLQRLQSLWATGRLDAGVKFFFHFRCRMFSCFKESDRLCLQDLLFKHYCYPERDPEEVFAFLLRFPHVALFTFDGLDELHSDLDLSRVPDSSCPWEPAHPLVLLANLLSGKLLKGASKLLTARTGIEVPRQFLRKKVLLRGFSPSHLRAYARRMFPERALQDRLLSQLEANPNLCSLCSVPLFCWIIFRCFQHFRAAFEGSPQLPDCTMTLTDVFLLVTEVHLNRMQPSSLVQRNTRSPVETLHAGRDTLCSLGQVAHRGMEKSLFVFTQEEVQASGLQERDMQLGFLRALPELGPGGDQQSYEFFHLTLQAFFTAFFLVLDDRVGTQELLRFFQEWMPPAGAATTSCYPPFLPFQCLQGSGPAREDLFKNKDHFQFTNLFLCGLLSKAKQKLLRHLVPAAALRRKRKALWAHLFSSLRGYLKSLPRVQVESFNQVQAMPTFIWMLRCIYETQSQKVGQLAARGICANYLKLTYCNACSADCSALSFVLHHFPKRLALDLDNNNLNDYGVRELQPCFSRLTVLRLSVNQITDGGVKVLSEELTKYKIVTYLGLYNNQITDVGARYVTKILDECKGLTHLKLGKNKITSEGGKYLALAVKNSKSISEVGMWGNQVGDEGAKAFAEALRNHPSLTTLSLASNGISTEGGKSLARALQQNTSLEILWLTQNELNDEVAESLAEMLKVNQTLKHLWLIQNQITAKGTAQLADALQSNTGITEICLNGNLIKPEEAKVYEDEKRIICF
In words: co-immunoprecipitation from co-transfected 293T cells, immunoblot.
Source text: as §1

T2 sequence (O43353 whole entry): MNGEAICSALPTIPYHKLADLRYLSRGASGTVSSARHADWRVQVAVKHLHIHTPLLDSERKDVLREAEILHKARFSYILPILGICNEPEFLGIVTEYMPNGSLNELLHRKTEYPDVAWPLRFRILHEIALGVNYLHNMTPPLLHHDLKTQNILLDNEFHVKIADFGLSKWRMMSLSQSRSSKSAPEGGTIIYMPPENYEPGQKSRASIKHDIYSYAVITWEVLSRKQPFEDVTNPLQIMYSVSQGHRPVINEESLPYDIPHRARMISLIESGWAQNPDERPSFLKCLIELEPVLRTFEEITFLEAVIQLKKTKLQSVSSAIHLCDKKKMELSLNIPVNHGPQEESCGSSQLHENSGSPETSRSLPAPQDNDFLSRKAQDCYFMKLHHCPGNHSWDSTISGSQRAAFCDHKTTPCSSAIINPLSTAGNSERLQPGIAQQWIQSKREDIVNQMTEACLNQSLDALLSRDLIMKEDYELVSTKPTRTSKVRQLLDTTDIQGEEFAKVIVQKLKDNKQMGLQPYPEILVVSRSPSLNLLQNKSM

As to B1, the binding result in test [1] was “no binding”.

B2: Nod1 mutant, residues 649-953 (other)
chain: MPTFIWMLRCIYETQSQKVGQLAARGICANYLKLTYCNACSADCSALSFVLHHFPKRLALDLDNNNLNDYGVRELQPCFSRLTVLRLSVNQITDGGVKVLSEELTKYKIVTYLGLYNNQITDVGARYVTKILDECKGLTHLKLGKNKITSEGGKYLALAVKNSKSISEVGMWGNQVGDEGAKAFAEALRNHPSLTTLSLASNGISTEGGKSLARALQQNTSLEILWLTQNELNDEVAESLAEMLKVNQTLKHLWLIQNQITAKGTAQLADALQSNTGITEICLNGNLIKPEEAKVYEDEKRIICF
notes: also called the LRRs of Nod1; mutant containing the LRRs
In the case of B2, the binding result with RICK and in the test with Caspase-9 was “no binding” each time.

B3: Nod1 (other)
chain: MEEQGHSEMEIIPSESHPHIQLLKSNRELLVTHIRNTQCLVDNLLKNDYFSAEDAEIVCACPTQPDKVRKILDLVQSKGEEVSEFFLYLLQQLADAYVDLRPWLLEIGFSPSLLTQSKVVVNTDPVSRYTQQLRHHLGRDSKFVLCYAQKEELLLEEIYMDTIMELVGFSNESLGSLNSLACLLDHTTGILNEQGETIFILGDAGVGKSMLLQRLQSLWATGRLDAGVKFFFHFRCRMFSCFKESDRLCLQDLLFKHYCYPERDPEEVFAFLLRFPHVALFTFDGLDELHSDLDLSRVPDSSCPWEPAHPLVLLANLLSGKLLKGASKLLTARTGIEVPRQFLRKKVLLRGFSPSHLRAYARRMFPERALQDRLLSQLEANPNLCSLCSVPLFCWIIFRCFQHFRAAFEGSPQLPDCTMTLTDVFLLVTEVHLNRMQPSSLVQRNTRSPVETLHAGRDTLCSLGQVAHRGMEKSLFVFTQEEVQASGLQERDMQLGFLRALPELGPGGDQQSYEFFHLTLQAFFTAFFLVLDDRVGTQELLRFFQEWMPPAGAATTSCYPPFLPFQCLQGSGPAREDLFKNKDHFQFTNLFLCGLLSKAKQKLLRHLVPAAALRRKRKALWAHLFSSLRGYLKSLPRVQVESFNQVQAMPTFIWMLRCIYETQSQKVGQLAARGICANYLKLTYCNACSADCSALSFVLHHFPKRLALDLDNNNLNDYGVRELQPCFSRLTVLRLSVNQITDGGVKVLSEELTKYKIVTYLGLYNNQITDVGARYVTKILDECKGLTHLKLGKNKITSEGGKYLALAVKNSKSISEVGMWGNQVGDEGAKAFAEALRNHPSLTTLSLASNGISTEGGKSLARALQQNTSLEILWLTQNELNDEVAESLAEMLKVNQTLKHLWLIQNQITAKGTAQLADALQSNTGITEICLNGNLIKPEEAKVYEDEKRIICF
notes: also called wild-type Nod1; WT Nod1
As to B3, the binding result with Apaf-1 was “no binding”.

B4: Caspase-9 C287S (enzyme, UniProt P55211 1-416, looked up)
chain: MDEADRRLLRRCRLRLVEELQVDQLWDALLSRELFRPHMIEDIQRAGSGSRRDQARQLIIDLETRGSQALPLFISCLEDTGQDMLASFLRTNRQAAKLSKPTLENLTPVVLRPEIRKPEVLRPETPRPVDIGSGGFGDVGALESLRGNADLAYILSMEPCGHCLIINNVNFCRESGLRTRTGSNIDCEKLRRRFSSLHFMVEVKGDLTAKKMVLALLELAQQDHGALDCCVVVILSHGCQASHLQFPGAVYGTDGCPVSVEKIVNIFNGTSCPSLGGKPKLFFIQASGGEQKDHGFEVASTSPEDESPGSNPEPDATPFQEGLRTFDQLDAISSLPTPSDIFVSYSTFPGFVSWRDPKSGSWYVETLDDIFEQWAHSEDLQSLLLRVANAVSVKGIYKQMPGCFNFLRKKLFFKTS
notes: Named only once, in the sentence on Nod1 V41Q
Consider B4, for which the binding result with Nod1 V41Q is “no binding”.
